Measured values: paper PMC7515697 (2020)

T1: X. albilineans Cas8f–Cas5f heterodimer (Xanthomonas albilineans)
T1 chain 1: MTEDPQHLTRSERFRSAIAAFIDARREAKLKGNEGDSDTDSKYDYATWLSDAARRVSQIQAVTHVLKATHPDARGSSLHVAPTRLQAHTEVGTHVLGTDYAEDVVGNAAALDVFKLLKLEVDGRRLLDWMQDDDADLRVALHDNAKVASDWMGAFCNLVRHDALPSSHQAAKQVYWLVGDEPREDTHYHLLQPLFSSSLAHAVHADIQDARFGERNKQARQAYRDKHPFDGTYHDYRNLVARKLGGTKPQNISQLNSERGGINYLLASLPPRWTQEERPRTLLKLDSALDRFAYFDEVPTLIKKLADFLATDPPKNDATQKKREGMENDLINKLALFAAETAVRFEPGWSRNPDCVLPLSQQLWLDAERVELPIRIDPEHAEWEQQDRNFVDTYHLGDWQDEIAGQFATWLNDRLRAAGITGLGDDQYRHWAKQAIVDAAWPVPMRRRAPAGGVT
T1 chain 2: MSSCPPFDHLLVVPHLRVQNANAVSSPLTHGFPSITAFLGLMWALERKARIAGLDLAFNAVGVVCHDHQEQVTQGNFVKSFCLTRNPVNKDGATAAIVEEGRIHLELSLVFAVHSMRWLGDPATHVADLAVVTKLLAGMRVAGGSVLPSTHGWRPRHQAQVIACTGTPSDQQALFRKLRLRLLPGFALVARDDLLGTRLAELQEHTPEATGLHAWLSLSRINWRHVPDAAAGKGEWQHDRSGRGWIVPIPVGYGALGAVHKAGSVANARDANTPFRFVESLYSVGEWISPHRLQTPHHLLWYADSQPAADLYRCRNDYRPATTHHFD

B1: AcrIF7 (a.a. 1–67) (natural protein)
chain: MTTFTSIVTTNPDFGGFEFYVEAGQQFDDSAYEEAYGVSVPSAVVEEMNAKAAQLKDGEWLNVSHEA

Legend:
[1] = target: X. albilineans Cas8f–Cas5f heterodimer (Xanthomonas albilineans); assay: ITC; 250 μM AcrIF7 in the syringe titrated into 35 μM Cas8f–Cas5f in the cell; 20 mM Tris–HCl pH 7.5, 150 mM NaCl, 1 mM TCEP, 25°C; one-site binding model
[2] = target: X. albilineans Cas8f–Cas5f heterodimer (Xanthomonas albilineans); assay: ITC; as the standard ITC but with 500 mM NaCl instead of 150 mM
[3] = target: X. albilineans Cas8f(K248E)–Cas5f heterodimer (Xanthomonas albilineans); assay: ITC; 250 μM AcrIF7 in the syringe titrated into 35 μM Cas8f–Cas5f in the cell; 20 mM Tris–HCl pH 7.5, 150 mM NaCl, 1 mM TCEP, 25°C; one-site binding model
[4] = target: X. albilineans Cas8f(K29E)–Cas5f heterodimer (Xanthomonas albilineans); assay: as above
[5] = target: T1, X. albilineans Cas8f–Cas5f heterodimer; assay: ITC; 500 mM NaCl

Molecule	Kd [1] [nM]	dH [1] [kcal/mol]	stoichiometry N [1]	other results
AcrIF7 E22K (natural protein)	50	-15.6	0.75	
AcrIF7 E46K/E47K (natural protein)	46	-17	0.8	
AcrIF7 E33K/E34K (natural protein)	4850	-9.5	0.9	
AcrIF7 D28K/D29K (natural protein)	179	-12.9	0.75	
AcrIF7 D13K (natural protein)	2450	-14.2	0.72	
AcrIF7 D57K (natural protein)	333	-12.7	0.77	
AcrIF7 E18K (natural protein)	49	-19.6	0.88	
AcrIF7 (a.a. 1–67) (natural protein)	46	-17.1	0.78	fold reduction of the strength of the interaction at 500 mM NaCl against 150 mM NaCl [2]: 2.7 fold; Kd [3]: 1870 nM; dH [3]: -16 kcal/mol; stoichiometry N [3]: 0.78; Kd [4]: 327 nM; dH [4]: -14.5 kcal/mol; stoichiometry N [4]: 0.83
B1				Kd [5]: 124 nM
